In patent publication EP0866075B1, “Method to treat microbial infections by uncoupling of phosphotransferase system and appropriate agents therefor” (Arpida AG,, priority 1997, dated 1998):

Target: enzyme I (phosphoenolpyruvate-protein phosphotransferase, EC 2.7.3.9) of the E. coli phosphotransferase system (E. coli), P08839
Experiment: cell-based or functional assay

In the case of SSLRGHRWVY (modifications not checked) [peptide 17 …], the inhibition IC50 is reported as 120 µM and the uncoupling Pi/peptide (x IC50/h) (Pi/peptide (x IC50/h)) is reported as 50.3.
